Data as given in patent US9193963B2, “Mutant endoglucanase” (Toray Industries, Inc., priority 2011, dated 2015).
Numbering of substitutions follows the chain as printed.

Legend:
[1] = Saccharification of lignocellulose 3 with Celluclast and endoglucanase; type: biochemical, Rice straw; conditions: 5 wt % Lignocellulose 3, pH 5.2, 50° C., 24 hours; 1.0 mg/mL cellulase + 0.1 mg/mL endoglucanase
Experimental: (§1) Rice straw was used as cellulose. The cellulose was immersed in water, and then autoclaved with agitation at 180° C. for 20 minutes (Nitto Koatsu Co. Ltd.). Pressure at this time was 10 MPa. After treatment, a solution component (hereinafter, referred to as “hydrothermally treated solution”) and the treated biomass component were subjected to solid-liquid separation by centrifugation (3000 G). The thus treated biomass component was used as lignocellulose 3 for the following examples.
(§2) The changes in the amount of glucose generated when the enzyme composition had been caused to act on lignocellulose substrates were compared. The substrates were prepared by suspending 5 wt % lignocelluloses (1 to 3) (prepared in Reference Example 3) in 50 mM acetate buffer (pH5.2). Reactions were performed at 50° C. for 24 hours. The concentrations of the generated glucose were measured after adequate sampling. As a filamentous bacterium-derived cellulase mixture, commercially available Trichoderma reesei-derived cellulase (Celluclast, Sigma) was used. As endoglucanases, the mutant endoglucanases prepared in Example 2 and the wild-type endoglucanases prepared in Reference Example 1 were separately used. The following quantities of enzymes were added: 1.0 mg/mL cellulase, and 0.1 mg/mL endoglucanase (in an amount one tenth that of the cellulase).

[2] = Inhibition experiment with vanillin: degradation of phosphoric acid swollen cellulose; type: biochemical; conditions: enzyme 0.5 μM, 1 hour, 50° C., parent at 0 mM = 100%
[3] = Saccharification of lignocellulose 2 with Trichoderma reesei culture solution and endoglucanase; type: biochemical, Rice straw; conditions: Lignocellulose 2, 24 hours; cellulase 1.0 mg/mL + endoglucanase 0.1 mg/mL + β-glucosidase (Novozyme 188) 0.01 mg/mL
Experimental: (§3) Rice straw was used as cellulose. Cellulose was immersed in a 1% aqueous sulfuric acid solution, and then autoclaved for 30 minutes at 150° C. (Nitto Koatsu Co. Ltd.). After treatment, the resultant was subjected to solid-liquid separation into an aqueous sulfuric acid solution (hereinafter, referred to as “dilute-sulfuric-acid-treated solution”) and cellulose treated with sulfuric acid. Next, the cellulose treated with sulfuric acid was mixed and agitated with the dilute-sulfuric-acid-treated solution so that the solid content concentration was 10 wt %. Then the mixture was adjusted to around pH 5 using sodium hydroxide. The resultant was used as lignocellulose 2 for the following examples.
as §2
(§4) Lignocelluloses (1-3) prepared in Reference Example 3 were used as substrates. The Trichoderma reesei culture solution prepared in Reference Example 4 was used as a filamentous bacterium-derived cellulase mixture. Lignocelluloses (1-3) were hydrolyzed in a manner similar to that in Example 7, except for the quantities of the enzymes added: cellulase (1.0 mg/mL); endoglucanase (0.1 mg/mL (in an amount one tenth that of the cellulase); and β-glucosidase (Novozyme 188) (0.01 mg/mL (in an amount one hundredth that of the cellulase).

[4] = Saccharification of lignocellulose 1 with Trichoderma reesei culture solution and endoglucanase; type: biochemical, Rice straw; conditions: Lignocellulose 1, 24 hours; cellulase 1.0 mg/mL + endoglucanase 0.1 mg/mL + β-glucosidase (Novozyme 188) 0.01 mg/mL
Experimental: (§5) Rice straw was used as cellulose. The cellulose was added to a small reactor (Taiatsu Techno Corporation, TVS-N2 (30 ml)), and then cooled with liquid nitrogen. An ammonia gas was fed to the reactor, thereby completely immersing the sample in the liquid ammonia. The reactor was closed using its lid, and then left to stand at room temperature for 15 minutes. Subsequently, treatment was performed for 1 hour in an oil bath at 150° C. After treatment, the reactor was removed from the oil bath, an ammonia gas leak was immediately performed within a draft chamber. The reactor was vacuumed using a vacuum pump to 10 Pa for drying. The resultant was used as lignocellulose 1 in the following examples.
as §2, §4

[5] = Inhibition experiment with ferulic acid: degradation of phosphoric acid swollen cellulose; type: biochemical; conditions: enzyme 0.5 μM, 1 hour, 50° C., parent at 0 mM = 100%
[6] = Saccharification of lignocellulose 1 with Celluclast and endoglucanase; type: biochemical, Rice straw; conditions: 5 wt % Lignocellulose 1, pH 5.2, 50° C., 24 hours; 1.0 mg/mL cellulase + 0.1 mg/mL endoglucanase
Experimental: as §5, §2

[7] = Saccharification of lignocellulose 2 with Celluclast and endoglucanase; type: biochemical, Rice straw; conditions: 5 wt % Lignocellulose 2, pH 5.2, 50° C., 24 hours; 1.0 mg/mL cellulase + 0.1 mg/mL endoglucanase
Experimental: as §3, §2

[8] = Activity to degrade phosphoric acid swollen cellulose; type: biochemical; conditions: 1% phosphoric acid swollen cellulose, pH 5.2, enzyme 0.5 μM, 1 hour, 50° C.; glucose generated by each parent endoglucanase = 100%
Experimental: The term “identity” refers to the percentage of amino acid residues identical to and amino acid residues analogous to the other amino acid residues in all the amino acid residues overlapped when an optimum alignment is performed by introducing gaps or no gaps into two amino acid sequences and then aligning the two amino acid sequences. Such an identity can be found using a method known by persons skilled in the art, sequence analysis software, and the like (a known algorithm such as BLAST or FASTA). The term “endoglucanase activity” is as defined above and can be determined by adding an enzyme solution to a substrate solution of phosphoric acid swollen cellulose that has been dissolved in 50 mM acetic acid-sodium acetate buffer (pH 5.2) or the like, performing 1 hour of reaction at 30° C. to 85° C., stopping the reaction by changing the pH if necessary, and then determining the concentration of glucose in the reaction solution using a glucose determination kit, for example.
The mutants obtained in Comparative Example 1 were compared in terms of activity by a technique similar to that in Example 3. The concentration (g/L) of glucose generated by each parent endoglucanase under the above reaction conditions was determined to be 100%.

[9] = Saccharification of lignocellulose 3 with Trichoderma reesei culture solution and endoglucanase; type: biochemical, Rice straw; conditions: Lignocellulose 3, 24 hours; cellulase 1.0 mg/mL + endoglucanase 0.1 mg/mL + β-glucosidase (Novozyme 188) 0.01 mg/mL
Experimental: as §1, §2, §4

B1: EGAc Mutant: mutant EGAc, SEQ ID NO: 32; residue corresponding to 273rd tryptophan substituted with alanine (protein)
chain: MPRALRRVPGSRVMLRVGVVVAVLALVAALANLAVPRPARAAGGGYWHTSGREILDANNVPVRIAGINWFGFETCNYVVHGLWSRDYRSMLDQIKSLGYNTIRLPYSDDILKPGTMPNSINFYQMNQDLQGLTSLQVMDKIVAYAGQIGLRIILDRHRPDCSGQSALWYTSSVSEATWISDLQALAQRYKGNPTVVGFDLHNEPHDPACWGCGDPSIDWRLAAERAGNAVLSVNPNLLIFVEGVQSYNGDSYWAGGNLQGAGQYPVVLNVPNRLVYSAHDYATSVYPQTWFSDPTFPNNMPGIWNKNWGYLFNQNIAPVWLGEFGTTLQSTTDQTWLKTLVQYLRPTAQYGADSFQWTFWSWNPDSGDTGGILKDDWQTVDTVKDGYLAPIKSSIFDPVGASASPSSQPSPSVSPSPSPSPSASRTPTPTPTPTASPTPTLTPTATPTPTASPTPSPTAASGARCTASYQVNSDWGNGFTVTVAVTNSGSVATKTWTVSWTFGGNQTITNSWNAAVTQNGQSVTARNMSYNNVIQPGQNTTFGFQASYTGSNAAPTVACAAS
modifications: Acidthermus cellulolyticus EGAc W254A
notes: residue corresponding to 273rd tryptophan substituted with alanine
[1]
  Concentration of glucose generated, Celluclast + Mutant: 14 g/L
[2]; vanillin 0 mM
  Relative activity to degrade phosphoric acid swollen cellulose: 100%
[2]; vanillin 5 mM
  Relative activity to degrade phosphoric acid swollen cellulose: 100%
[2]; vanillin 10 mM
  Relative activity to degrade phosphoric acid swollen cellulose: 95%
[2]; vanillin 15 mM
  Relative activity to degrade phosphoric acid swollen cellulose: 95%
[3]
  Concentration of glucose generated, Culture solution + Mutant: 11 g/L
[4]
  Concentration of glucose generated, Culture solution + Mutant: 13 g/L
[5]; ferulic acid 0 mM
  Relative activity to degrade phosphoric acid swollen cellulose: 100%
[5]; ferulic acid 5 mM
  Relative activity to degrade phosphoric acid swollen cellulose: 100%
[5]; ferulic acid 10 mM
  Relative activity to degrade phosphoric acid swollen cellulose: 100%
[5]; ferulic acid 15 mM
  Relative activity to degrade phosphoric acid swollen cellulose: 95%
[6]
  Concentration of glucose generated, Celluclast + Mutant: 16 g/L
[7]
  Concentration of glucose generated, Celluclast + Mutant: 14 g/L
[8]
  Relative activity: 100%
[9]
  Concentration of glucose generated, Culture solution + Mutant: 11 g/L

B2: EGSt Wild-type: Spirochaeta thermophile-derived endoglucanase, SEQ ID NO: 37, parent endoglucanase (protein)
chain: MKYLRTILLSLLVFLITLGCSLPFLDVSGKGGTAARATELRVGRLTGVNWFGFETGNHVVHGLWARDYKSMLKQIADLGFNCIRIPWANEMIDKAPNSIQINPSGVDPYTGEQGLNLDLEGLSSLEVLDKIIEEANRLGLYVILDNHSRAADGYMNETLWYTDEYPEERWISDWVMMVRRYKNYPNVIGADLNNEPHGNTGTGMKPPATWGYTLPEYGDTDWKAAAERCAAAILAENPNLYIIVEGVEEYQGDTYWWGGNLKGVRDYPITSIPAENLIYSPHEYGPEVYNQSWFSDPTFPDNMPAIWDEHFWFIYKENIAPVLIGEFGIKEASAADPSSVAYQWFTTFMAYVGDKASWTFWSWNPNSGDTGGILKDDWVTVNEAKYNLIRPYLANPPQPTATPTPTGTPTPTPTPTPTPTPTPTPTPTPTPTATPTPTPTPTPTPTPTPTATPTPSGEYTEIALPFSYDGAGEYYWKTDQFSTDPNDWSRYVNSWNLDLLEINGTDYTNVWVAQHQIPAASDGYWYIHYKSGVSWGHVEIK
modifications: Spirochaeta thermophila EGSt
[1]
  Concentration of glucose generated, Celluclast + Wild-type: 11 g/L
[2]; vanillin 0 mM
  Relative activity to degrade phosphoric acid swollen cellulose: 100%
[2]; vanillin 5 mM
  Relative activity to degrade phosphoric acid swollen cellulose: 50%
[2]; vanillin 10 mM
  Relative activity to degrade phosphoric acid swollen cellulose: 50%
[2]; vanillin 15 mM
  Relative activity to degrade phosphoric acid swollen cellulose: 45%
[3]
  Concentration of glucose generated, Culture solution + Wild-type: 9 g/L
[4]
  Concentration of glucose generated, Culture solution + Wild-type: 8 g/L
[5]; ferulic acid 0 mM
  Relative activity to degrade phosphoric acid swollen cellulose: 100%
[5]; ferulic acid 5 mM
  Relative activity to degrade phosphoric acid swollen cellulose: 50%
[5]; ferulic acid 10 mM
  Relative activity to degrade phosphoric acid swollen cellulose: 45%
[5]; ferulic acid 15 mM
  Relative activity to degrade phosphoric acid swollen cellulose: 40%
[6]
  Concentration of glucose generated, Celluclast + Wild-type: 11 g/L
[7]
  Concentration of glucose generated, Celluclast + Wild-type: 12 g/L
[8]
  Relative activity: 100%
[9]
  Concentration of glucose generated, Culture solution + Wild-type: 8 g/L

B3: EGSt Mutant: mutant EGSt, SEQ ID NO: 38; residue corresponding to 273rd tryptophan substituted with alanine (protein)
chain: B2 chain with W257A
modifications: Spirochaeta thermophila EGSt W257A
notes: as for B1
[1]
  Concentration of glucose generated, Celluclast + Mutant: 14 g/L
[2]; vanillin 0 mM
  Relative activity to degrade phosphoric acid swollen cellulose: 100%
[2]; vanillin 5 mM
  Relative activity to degrade phosphoric acid swollen cellulose: 100%
[2]; vanillin 10 mM
  Relative activity to degrade phosphoric acid swollen cellulose: 100%
[2]; vanillin 15 mM
  Relative activity to degrade phosphoric acid swollen cellulose: 90%
[3]
  Concentration of glucose generated, Culture solution + Mutant: 12 g/L
[4]
  Concentration of glucose generated, Culture solution + Mutant: 11 g/L
[5]; ferulic acid 0 mM
  Relative activity to degrade phosphoric acid swollen cellulose: 100%
[5]; ferulic acid 5 mM
  Relative activity to degrade phosphoric acid swollen cellulose: 100%
[5]; ferulic acid 10 mM
  Relative activity to degrade phosphoric acid swollen cellulose: 100%
[5]; ferulic acid 15 mM
  Relative activity to degrade phosphoric acid swollen cellulose: 90%
[6]
  Concentration of glucose generated, Celluclast + Mutant: 14 g/L
[7]
  Concentration of glucose generated, Celluclast + Mutant: 15 g/L
[8]
  Relative activity: 100%
[9]
  Concentration of glucose generated, Culture solution + Mutant: 11 g/L
